# Laboratory results published in US20220098307A1 (WUHAN YZY BIOPHARMA, published 2022).
# Target: T1, Monkey CD3 (monkey)
# T1 construct: whole, on cells; also called CD3 of monkey CD3 positive T cells
# Test: flow cytometry, monkey T cells
row,Binder,EC50 [nM]
1,"M1IC-G2 (bispecific antibody, structure 1 isotype control; CH2 G2CH2) not shown heavy: EVKLDETGGGLVQPGRPMKLSCVASGFTFSDYWMNWVRQSPEKGLEWVAQIRNKPYNYETYYSDSVKGRFTISRDDSKSSVYLQMNNLRVEDMGIYYCTGSYYGMDYWGQGTSVTVSSASTKGPSVFPLAPSSKSTSGGTAALGCLVKDYFPEPVTVSWNSGALTSGVHTFPAVLQSSGLYSLSSVVTVPSSSLGTQTYICNVNHKPSNTKVDKKVEPKSCDKTHTCPPCPAPPVAGPSVFLFPPKPKDTLMISRTPEVTCVVVDVSHEDPEVQFNWYVDGVEVHNAKTKPREEQFNSTFRVVSVLTVVHQDWLNGKEYKCKVSNKGLPAPIEKTISKTKGQPREPQVYTLPPCRDELTKNQVSLWCLVKGFYPSDIAVEWESNGQPENNYKTTPPVLDSDGSFFLYSKLTVDKSRWQQGNVFSCSVMHEALHNHYTQKSLSLSPGK light: DVVMTQTPLSLPVSLGDQASISCRSSQSLVHSNGNTYLRWYLQKPGQSPKVLIYKVSNRFSGVPDRFSGSGSGTDFTLKISRVEAEDLGVYFCSQSTHVPWTFGGGTKLEIKRTVAAPSVFIFPPSDEQLKSGTASVVCLLNNFYPREAKVQWKVDNALQSGNSQESVTEQDSKDSTYSLSSTLTLSKADYEKHKVYACEVTHQGLSSPVTKSFNRGEC",10.4
2,"M1IC-WT (bispecific antibody, structure 1 isotype control; CH2 WT; also called MlIC-WT) not shown heavy: not shown light: DVVMTQTPLSLPVSLGDQASISCRSSQSLVHSNGNTYLRWYLQKPGQSPKVLIYKVSNRFSGVPDRFSGSGSGTDFTLKISRVEAEDLGVYFCSQSTHVPWTFGGGTKLEIKRTVAAPSVFIFPPSDEQLKSGTASVVCLLNNFYPREAKVQWKVDNALQSGNSQESVTEQDSKDSTYSLSSTLTLSKADYEKHKVYACEVTHQGLSSPVTKSFNRGEC",19.8
3,"M1IC-SG2 (bispecific antibody, structure 1 isotype control; CH2 SG2CH2) not shown heavy: EVKLDETGGGLVQPGRPMKLSCVASGFTFSDYWMNWVRQSPEKGLEWVAQIRNKPYNYETYYSDSVKGRFTISRDDSKSSVYLQMNNLRVEDMGIYYCTGSYYGMDYWGQGTSVTVSSASTKGPSVFPLAPSSKSTSGGTAALGCLVKDYFPEPVTVSWNSGALTSGVHTFPAVLQSSGLYSLSSVVTVPSSSLGTQTYICNVNHKPSNTKVDKKVEPKSCDKTHTCPPSPAPPVAGPSVFLFPPKPKDTLMISRTPEVTCVVVDVSHEDPEVQFNWYVDGVEVHNAKTKPREEQFNSTFRVVSVLTVVHQDWLNGKEYKCKVSNKGLPAPIEKTISKTKGQPREPQVYTLPPCRDELTKNQVSLWCLVKGFYPSDIAVEWESNGQPENNYKTTPPVLDSDGSFFLYSKLTVDKSRWQQGNVFSCSVMHEALHNHYTQKSLSLSPGK light: DVVMTQTPLSLPVSLGDQASISCRSSQSLVHSNGNTYLRWYLQKPGQSPKVLIYKVSNRFSGVPDRFSGSGSGTDFTLKISRVEAEDLGVYFCSQSTHVPWTFGGGTKLEIKRTVAAPSVFIFPPSDEQLKSGTASVVCLLNNFYPREAKVQWKVDNALQSGNSQESVTEQDSKDSTYSLSSTLTLSKADYEKHKVYACEVTHQGLSSPVTKSFNRGEC",13.2
4,"M1IC-GG2 (bispecific antibody, structure 1 isotype control; CH2 GG2CH2) not shown heavy: EVKLDETGGGLVQPGRPMKLSCVASGFTFSDYWMNWVRQSPEKGLEWVAQIRNKPYNYETYYSDSVKGRFTISRDDSKSSVYLQMNNLRVEDMGIYYCTGSYYGMDYWGQGTSVTVSSASTKGPSVFPLAPSSKSTSGGTAALGCLVKDYFPEPVTVSWNSGALTSGVHTFPAVLQSSGLYSLSSVVTVPSSSLGTQTYICNVNHKPSNTKVDKKVEPKSCDKTHTCPPGPAPPVAGPSVFLFPPKPKDTLMISRTPEVTCVVVDVSHEDPEVQFNWYVDGVEVHNAKTKPREEQFNSTFRVVSVLTVVHQDWLNGKEYKCKVSNKGLPAPIEKTISKTKGQPREPQVYTLPPCRDELTKNQVSLWCLVKGFYPSDIAVEWESNGQPENNYKTTPPVLDSDGSFFLYSKLTVDKSRWQQGNVFSCSVMHEALHNHYTQKSLSLSPGK light: DVVMTQTPLSLPVSLGDQASISCRSSQSLVHSNGNTYLRWYLQKPGQSPKVLIYKVSNRFSGVPDRFSGSGSGTDFTLKISRVEAEDLGVYFCSQSTHVPWTFGGGTKLEIKRTVAAPSVFIFPPSDEQLKSGTASVVCLLNNFYPREAKVQWKVDNALQSGNSQESVTEQDSKDSTYSLSSTLTLSKADYEKHKVYACEVTHQGLSSPVTKSFNRGEC",13

# Continued, values first:
row,EC50 [nM],Binder
1,10.6,"M1IC-G2D (bispecific antibody, structure 1 isotype control; CH2 G2DCH2) not shown heavy: EVKLDETGGGLVQPGRPMKLSCVASGFTFSDYWMNWVRQSPEKGLEWVAQIRNKPYNYETYYSDSVKGRFTISRDDSKSSVYLQMNNLRVEDMGIYYCTGSYYGMDYWGQGTSVTVSSASTKGPSVFPLAPSSKSTSGGTAALGCLVKDYFPEPVTVSWNSGALTSGVHTFPAVLQSSGLYSLSSVVTVPSSSLGTQTYICNVNHKPSNTKVDKKVEPKSCDKTHTCPPCPAPPVAGPSVFLFPPKPKDTLMISRTPEVTCVVVDVSHEAPEVQFNWYVDGVEVHNAKTKPREEQFNSTFRVVSVLTVVHQDWLNGKEYKCKVSNKGLPAPIEKTISKTKGQPREPQVYTLPPCRDELTKNQVSLWCLVKGFYPSDIAVEWESNGQPENNYKTTPPVLDSDGSFFLYSKLTVDKSRWQQGNVFSCSVMHEALHNHYTQKSLSLSPGK light: DVVMTQTPLSLPVSLGDQASISCRSSQSLVHSNGNTYLRWYLQKPGQSPKVLIYKVSNRFSGVPDRFSGSGSGTDFTLKISRVEAEDLGVYFCSQSTHVPWTFGGGTKLEIKRTVAAPSVFIFPPSDEQLKSGTASVVCLLNNFYPREAKVQWKVDNALQSGNSQESVTEQDSKDSTYSLSSTLTLSKADYEKHKVYACEVTHQGLSSPVTKSFNRGEC"
2,17.8,"M1IC-PG2 (bispecific antibody, structure 1 isotype control; CH2 PG2CH2) not shown heavy: EVKLDETGGGLVQPGRPMKLSCVASGFTFSDYWMNWVRQSPEKGLEWVAQIRNKPYNYETYYSDSVKGRFTISRDDSKSSVYLQMNNLRVEDMGIYYCTGSYYGMDYWGQGTSVTVSSASTKGPSVFPLAPSSKSTSGGTAALGCLVKDYFPEPVTVSWNSGALTSGVHTFPAVLQSSGLYSLSSVVTVPSSSLGTQTYICNVNHKPSNTKVDKKVEPKSCDKTHTCPPPPAPPVAGPSVFLFPPKPKDTLMISRTPEVTCVVVDVSHEDPEVQFNWYVDGVEVHNAKTKPREEQFNSTFRVVSVLTVVHQDWLNGKEYKCKVSNKGLPAPIEKTISKTKGQPREPQVYTLPPCRDELTKNQVSLWCLVKGFYPSDIAVEWESNGQPENNYKTTPPVLDSDGSFFLYSKLTVDKSRWQQGNVFSCSVMHEALHNHYTQKSLSLSPGK light: DVVMTQTPLSLPVSLGDQASISCRSSQSLVHSNGNTYLRWYLQKPGQSPKVLIYKVSNRFSGVPDRFSGSGSGTDFTLKISRVEAEDLGVYFCSQSTHVPWTFGGGTKLEIKRTVAAPSVFIFPPSDEQLKSGTASVVCLLNNFYPREAKVQWKVDNALQSGNSQESVTEQDSKDSTYSLSSTLTLSKADYEKHKVYACEVTHQGLSSPVTKSFNRGEC"
3,16,"M1IC-DG2D (bispecific antibody, structure 1 isotype control; CH2 DG2DCH2; also called MlIC-DG2D) not shown heavy: EVKLDETGGGLVQPGRPMKLSCVASGFTFSDYWMNWVRQSPEKGLEWVAQIRNKPYNYETYYSDSVKGRFTISRDDSKSSVYLQMNNLRVEDMGIYYCTGSYYGMDYWGQGTSVTVSSASTKGPSVFPLAPSSKSTSGGTAALGCLVKDYFPEPVTVSWNSGALTSGVHTFPAVLQSSGLYSLSSVVTVPSSSLGTQTYICNVNHKPSNTKVDKKVEPKSCDKTHTCPPCPAPPVAGPSVFLFPPKPKDTLMISRTPEVTCVVVAVSHEAPEVQFNWYVDGVEVHNAKTKPREEQFNSTFRVVSVLTVVHQDWLNGKEYKCKVSNKGLPAPIEKTISKTKGQPREPQVYTLPPCRDELTKNQVSLWCLVKGFYPSDIAVEWESNGQPENNYKTTPPVLDSDGSFFLYSKLTVDKSRWQQGNVFSCSVMHEALHNHYTQKSLSLSPGK light: DVVMTQTPLSLPVSLGDQASISCRSSQSLVHSNGNTYLRWYLQKPGQSPKVLIYKVSNRFSGVPDRFSGSGSGTDFTLKISRVEAEDLGVYFCSQSTHVPWTFGGGTKLEIKRTVAAPSVFIFPPSDEQLKSGTASVVCLLNNFYPREAKVQWKVDNALQSGNSQESVTEQDSKDSTYSLSSTLTLSKADYEKHKVYACEVTHQGLSSPVTKSFNRGEC"
4,8.79,"M1IC-AAG (bispecific antibody, structure 1 isotype control; CH2 AAG) not shown heavy: not shown light: DVVMTQTPLSLPVSLGDQASISCRSSQSLVHSNGNTYLRWYLQKPGQSPKVLIYKVSNRFSGVPDRFSGSGSGTDFTLKISRVEAEDLGVYFCSQSTHVPWTFGGGTKLEIKRTVAAPSVFIFPPSDEQLKSGTASVVCLLNNFYPREAKVQWKVDNALQSGNSQESVTEQDSKDSTYSLSSTLTLSKADYEKHKVYACEVTHQGLSSPVTKSFNRGEC"
5,14.5,"M1IC-DG2 (bispecific antibody, structure 1 isotype control; CH2 DG2CH2) not shown heavy: EVKLDETGGGLVQPGRPMKLSCVASGFTFSDYWMNWVRQSPEKGLEWVAQIRNKPYNYETYYSDSVKGRFTISRDDSKSSVYLQMNNLRVEDMGIYYCTGSYYGMDYWGQGTSVTVSSASTKGPSVFPLAPSSKSTSGGTAALGCLVKDYFPEPVTVSWNSGALTSGVHTFPAVLQSSGLYSLSSVVTVPSSSLGTQTYICNVNHKPSNTKVDKKVEPKSCDKTHTCPPCPAPPVAGPSVFLFPPKPKDTLMISRTPEVTCVVVAVSHEDPEVQFNWYVDGVEVHNAKTKPREEQFNSTFRVVSVLTVVHQDWLNGKEYKCKVSNKGLPAPIEKTISKTKGQPREPQVYTLPPCRDELTKNQVSLWCLVKGFYPSDIAVEWESNGQPENNYKTTPPVLDSDGSFFLYSKLTVDKSRWQQGNVFSCSVMHEALHNHYTQKSLSLSPGK light: DVVMTQTPLSLPVSLGDQASISCRSSQSLVHSNGNTYLRWYLQKPGQSPKVLIYKVSNRFSGVPDRFSGSGSGTDFTLKISRVEAEDLGVYFCSQSTHVPWTFGGGTKLEIKRTVAAPSVFIFPPSDEQLKSGTASVVCLLNNFYPREAKVQWKVDNALQSGNSQESVTEQDSKDSTYSLSSTLTLSKADYEKHKVYACEVTHQGLSSPVTKSFNRGEC"
6,14.2,"M1IC-AG2 (bispecific antibody, structure 1 isotype control; CH2 AG2CH2) not shown heavy: EVKLDETGGGLVQPGRPMKLSCVASGFTFSDYWMNWVRQSPEKGLEWVAQIRNKPYNYETYYSDSVKGRFTISRDDSKSSVYLQMNNLRVEDMGIYYCTGSYYGMDYWGQGTSVTVSSASTKGPSVFPLAPSSKSTSGGTAALGCLVKDYFPEPVTVSWNSGALTSGVHTFPAVLQSSGLYSLSSVVTVPSSSLGTQTYICNVNHKPSNTKVDKKVEPKSCDKTHTCPPAPAPPVAGPSVFLFPPKPKDTLMISRTPEVTCVVVDVSHEDPEVQFNWYVDGVEVHNAKTKPREEQFNSTFRVVSVLTVVHQDWLNGKEYKCKVSNKGLPAPIEKTISKTKGQPREPQVYTLPPCRDELTKNQVSLWCLVKGFYPSDIAVEWESNGQPENNYKTTPPVLDSDGSFFLYSKLTVDKSRWQQGNVFSCSVMHEALHNHYTQKSLSLSPGK light: DVVMTQTPLSLPVSLGDQASISCRSSQSLVHSNGNTYLRWYLQKPGQSPKVLIYKVSNRFSGVPDRFSGSGSGTDFTLKISRVEAEDLGVYFCSQSTHVPWTFGGGTKLEIKRTVAAPSVFIFPPSDEQLKSGTASVVCLLNNFYPREAKVQWKVDNALQSGNSQESVTEQDSKDSTYSLSSTLTLSKADYEKHKVYACEVTHQGLSSPVTKSFNRGEC"
